The test has as its target HER3 (human (endogenous in LIM1215)) (UniProt P21860). Nature of the test: Collaborative Enzyme Enhanced Reactive-immunoassay (CEER); proximity-mediated immunoassay in a multiplexed array format on LIM1215 cell lysates, done by Prometheus Laboratories; cells control-treated or treated 24h with cetuximab (50 ug/mL), lapatinib (1 uM), gefitinib, cetuximab + trastuzumab (20 ug/mL) or cetuximab + pertuzumab (10 ug/mL); read-out in computed units (CU).

For one substance, fold increase in HER3:PI3K p85 binding, 24h cetuximab against control treatment results are on record in article PMC5354831.

Chain of PI3K p85 (P27986 whole entry): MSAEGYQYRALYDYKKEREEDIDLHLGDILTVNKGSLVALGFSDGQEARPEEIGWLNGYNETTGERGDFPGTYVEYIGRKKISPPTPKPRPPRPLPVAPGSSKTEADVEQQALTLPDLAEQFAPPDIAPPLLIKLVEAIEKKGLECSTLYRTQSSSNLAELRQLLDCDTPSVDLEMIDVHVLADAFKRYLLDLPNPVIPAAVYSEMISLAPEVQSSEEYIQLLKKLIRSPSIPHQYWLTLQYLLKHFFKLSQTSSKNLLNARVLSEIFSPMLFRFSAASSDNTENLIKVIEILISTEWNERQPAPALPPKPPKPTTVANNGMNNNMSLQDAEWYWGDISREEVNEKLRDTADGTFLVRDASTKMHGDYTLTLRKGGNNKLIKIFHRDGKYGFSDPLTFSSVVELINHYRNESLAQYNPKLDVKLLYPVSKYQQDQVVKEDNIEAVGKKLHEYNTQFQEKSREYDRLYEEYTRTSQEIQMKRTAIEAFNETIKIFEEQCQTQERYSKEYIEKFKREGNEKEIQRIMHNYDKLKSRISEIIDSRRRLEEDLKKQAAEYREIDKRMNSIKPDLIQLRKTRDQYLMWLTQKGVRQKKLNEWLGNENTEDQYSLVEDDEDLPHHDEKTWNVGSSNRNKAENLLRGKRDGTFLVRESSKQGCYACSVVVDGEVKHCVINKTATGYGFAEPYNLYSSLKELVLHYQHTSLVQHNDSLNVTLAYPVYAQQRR
Chain of UniProt P21860 (P21860 20-1342): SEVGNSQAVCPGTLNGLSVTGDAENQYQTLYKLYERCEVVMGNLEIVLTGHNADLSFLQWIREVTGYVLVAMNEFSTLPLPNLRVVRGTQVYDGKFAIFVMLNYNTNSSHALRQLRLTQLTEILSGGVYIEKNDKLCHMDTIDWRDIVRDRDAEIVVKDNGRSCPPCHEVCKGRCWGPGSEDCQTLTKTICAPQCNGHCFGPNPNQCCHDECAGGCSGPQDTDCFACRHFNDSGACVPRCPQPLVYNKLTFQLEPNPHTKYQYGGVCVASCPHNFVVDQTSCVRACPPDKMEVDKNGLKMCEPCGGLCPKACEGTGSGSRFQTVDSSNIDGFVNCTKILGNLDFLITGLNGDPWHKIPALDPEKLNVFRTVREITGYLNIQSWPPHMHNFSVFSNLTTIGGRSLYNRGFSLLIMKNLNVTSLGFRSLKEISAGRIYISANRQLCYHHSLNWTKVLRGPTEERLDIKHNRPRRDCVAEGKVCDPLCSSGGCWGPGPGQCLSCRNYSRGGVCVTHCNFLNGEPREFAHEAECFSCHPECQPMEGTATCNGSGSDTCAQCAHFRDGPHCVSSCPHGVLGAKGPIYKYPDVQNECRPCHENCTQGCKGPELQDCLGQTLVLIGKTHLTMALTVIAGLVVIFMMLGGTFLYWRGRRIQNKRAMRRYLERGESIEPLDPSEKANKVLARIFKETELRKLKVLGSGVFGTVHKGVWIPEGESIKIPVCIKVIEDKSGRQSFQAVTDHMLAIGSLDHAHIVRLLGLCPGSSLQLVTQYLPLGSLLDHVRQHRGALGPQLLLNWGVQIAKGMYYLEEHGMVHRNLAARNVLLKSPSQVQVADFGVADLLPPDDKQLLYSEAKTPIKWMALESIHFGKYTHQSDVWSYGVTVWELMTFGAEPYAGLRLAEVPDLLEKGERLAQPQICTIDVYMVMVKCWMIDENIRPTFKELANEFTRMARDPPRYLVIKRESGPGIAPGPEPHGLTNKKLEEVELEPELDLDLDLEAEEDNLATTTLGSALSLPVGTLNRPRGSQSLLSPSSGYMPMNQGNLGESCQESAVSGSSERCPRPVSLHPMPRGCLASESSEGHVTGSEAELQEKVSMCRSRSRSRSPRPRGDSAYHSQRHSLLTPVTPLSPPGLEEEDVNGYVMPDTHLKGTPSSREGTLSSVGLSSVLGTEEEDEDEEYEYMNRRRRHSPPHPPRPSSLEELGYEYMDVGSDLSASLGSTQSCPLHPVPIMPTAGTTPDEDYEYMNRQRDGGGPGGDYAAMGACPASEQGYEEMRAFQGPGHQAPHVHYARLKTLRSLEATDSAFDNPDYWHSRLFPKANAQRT

With “PI3K p85 (from UniProt P27986 1-724) (natural protein)”, the fold increase in HER3:PI3K p85 binding, 24h cetuximab against control treatment came out at 5 fold.
